# Measurements: the RNAGym collection of RNA variant scans (doi:10.7554/elife.90254)
# B1: LINE1-mini (parent)
# chain: GGCAGAGCUCAACACAGCGUGGCAAAGUGGCUGUGGCUAGACUGCC
# Variants of: B1
# Assay: self-cleavage, relative activity (ratio to wild type); higher = more cleavage; in vitro, sequencing; the parent is a self-cleaving ribozyme
row,Variant,self-cleavage
1,A4C G36C,0.09
2,A4C G36A,0.73
3,A4C G36U,0.1
4,A4U C31G,0.05
5,A4U C31U,0.1
6,A4U C31A,0.05
7,A4G G36C,0.16
8,A4G G36A,0.54
9,A4G G36U,0.09
10,A4C U38C,0.12
11,A4C U38G,0.04
12,A4C U38A,0.12
13,A4U C46G,0.12
14,A4U C46A,0.16
15,A4U C46U,0.19
16,A4C G7U,0.21
17,A4C G7A,0.87
18,A4C G7C,0.17
19,A4U C42A,0.11
20,A4U C42U,0.14
21,A4U C42G,0.08
22,A4U A11C,0.04
23,A4U A11U,0.04
24,A4U A11G,0.04

row,Variant,self-cleavage
1,A4C G27A,0.17
2,A4C G27C,0.07
3,A4C G27U,0.07
4,A4G G30U,0.45
5,A4G G30A,1.37
6,A4G G30C,0.91
7,A4C U9G,0.24
8,A4C U9C,0.04
9,A4C U9A,0.18
10,A4G A39G,0.22
11,A4G A39C,0.06
12,A4G A39U,0.33
13,A4G C45U,0.6
14,A4G C45G,0.37
15,A4G C45A,0.45
16,A4G U20C,0.48
17,A4G U20A,0.19
18,A4G U20G,0.23
19,A4C C8G,0.07
20,A4C C8U,0.22
21,A4U G27A,0.19
22,A4U G27U,0.14
23,A4U G27C,0.17
24,A4U C23G,0.37

row,Variant,self-cleavage
1,A4U C23U,0.41
2,A4U C23A,0.16
3,A4G A11U,0.05
4,A4G A11C,0.04
5,A4G A11G,0.12
6,A4G A14C,0.12
7,A4G A14U,0.24
8,A4G A14G,0.2
9,A4C G21C,0.18
10,A4C G21U,0.21
11,A4C G21A,0.42
12,A4U A24G,0.26
13,A4U A24C,0.4
14,A4U A24U,0.21
15,A4U G17U,0.16
16,A4U G17C,0.06
17,A4U G17A,0.06
18,A4G A24U,1.02
19,A4G A24C,0.25
20,A4G A24G,1.09
21,A4G G35A,0.15
22,A4G G35U,0.19
23,A4G G35C,0.1
24,A4U G7C,0.18

row,Variant,self-cleavage
1,A4U G7U,0.2
2,A4U G7A,0.31
3,A4G G29U,0.63
4,A4G G29C,0.12
5,A4G G29A,0.36
6,A4U C8A,0.23
7,A4U C8U,0.26
8,A4U C8G,0.09
9,A4C G33U,0.06
10,A4C G33A,0.29
11,A4C G33C,0.04
12,A4G G33U,0.16
13,A4G G33A,0.12
14,A4G G33C,0.07
15,A4U C10A,0.04
16,A4U C10U,0.19
17,A4U C10G,0.06
18,A4C U20G,0.1
19,A4C U20A,0.08
20,A4C U20C,0.05
21,A4C G44U,0.13
22,A4C G44C,0.12
23,A4C G44A,0.16
24,A4G U9G,0.23

row,Variant,self-cleavage
1,A4G U9A,0.21
2,A4G U9C,0.02
3,A4U G19C,0.05
4,A4U G19A,0.68
5,A4U G19U,0.15
6,A4G A41U,0.3
7,A4G A41C,0.19
8,A4G A41G,0.11
9,A4U A6G,0.16
10,A4U A6U,0.13
11,A4U A6C,0.06
12,A4G A16U,0.16
13,A4G A16G,0.16
14,A4G A16C,0.12
15,A4G C23G,0.41
16,A4G C23A,0.44
17,A4G C23U,0.5
18,A4C C18A,0.07
19,A4C C18U,0.05
20,A4C C18G,0.11
21,A4G C10A,0.06
22,A4G C10U,0.22
23,A4G C10G,0.05
24,A4C C10A,0.04

row,Variant,self-cleavage
1,A4C C10U,0.09
2,A4C C10G,0.03
3,A4U C18U,0.11
4,A4U C18A,0.07
5,A4U C18G,0.08
6,A4G U28A,0.13
7,A4G U28G,0.3
8,A4G U28C,1.09
9,A4G G5A,0.15
10,A4G G5U,0.16
11,A4G G5C,0.07
12,A4G G44C,0.08
13,A4G G44A,0.48
14,A4G G44U,0.16
15,A4G C8A,0.32
16,A4G C8G,0.11
17,A4G C8U,0.24
18,A4G C18U,0.55
19,A4G C18A,0.31
20,A4G C18G,0.16
21,A4U C45U,0.16
22,A4U C45A,0.1
23,A4U C45G,0.15
24,A4G G22A,1.25

row,Variant,self-cleavage
1,A4G G22C,0.91
2,A4G G22U,1.14
3,A4G G40A,0.13
4,A4G G40U,0.15
5,A4G G40C,0.1
6,A4U G21A,0.48
7,A4U G21C,0.24
8,A4U G21U,0.35
9,A4U G29U,0.23
10,A4U G29A,0.2
11,A4U G29C,0.24
12,A4G U32G,0.08
13,A4G U32C,0.15
14,A4G U32A,0.06
15,A4G A6G,0.11
16,A4G A6U,0.27
17,A4G A6C,0.14
18,A4U G35C,0.11
19,A4U G35U,0.13
20,A4U G35A,0.14
21,A4C G35A,0.17
22,A4C G35C,0.11
23,A4C G35U,0.18
